Our source for the abundance fitness values is the Human Domainome abundance scans (Beltran et al. 2025).

± gives the uncertainty stated by the source.

The nature of this series: abundance fitness (aPCA) (normalised: wild type 0, dead -1); higher = more abundant; growth selection in yeast, the domain comes from the species named. To be noted: Homo sapiens.
Turning to “SAFB-like transcription modulator L48N, Q9NWH9”, the abundance fitness is -0.489 ± 0.043.

The substance “SAFB-like transcription modulator L48P, Q9NWH9” registered an abundance fitness of -0.489 ± 0.048.

With “SAFB-like transcription modulator L48R, Q9NWH9”, the abundance fitness was -0.537 ± 0.043.

The substance “SAFB-like transcription modulator L48S, Q9NWH9” registered an abundance fitness of -0.585 ± 0.039.

“SAFB-like transcription modulator L48T, Q9NWH9” showed an abundance fitness of -0.538 ± 0.043.

“SAFB-like transcription modulator L48V, Q9NWH9”: the abundance fitness was -0.607 ± 0.054.

Substance “SAFB-like transcription modulator L48W, Q9NWH9” had an abundance fitness of -0.613 ± 0.04.

In the case of “SAFB-like transcription modulator L48Y, Q9NWH9”, the abundance fitness was -0.788 ± 0.043.

The substance “SAFB-like transcription modulator L52A, Q9NWH9” displayed an abundance fitness of -0.702 ± 0.04.

In turn, “SAFB-like transcription modulator L52C, Q9NWH9” returned an abundance fitness of -0.827 ± 0.12.

“SAFB-like transcription modulator L52D, Q9NWH9” yielded an abundance fitness of -0.497 ± 0.05.

For “SAFB-like transcription modulator L52E, Q9NWH9”, the abundance fitness was -0.456 ± 0.15.

With “SAFB-like transcription modulator L52F, Q9NWH9”, the abundance fitness is -0.568 ± 0.12.

For the substance “SAFB-like transcription modulator L52G, Q9NWH9”, the abundance fitness was -0.611 ± 0.048.

The substance “SAFB-like transcription modulator L52M, Q9NWH9” gave an abundance fitness of -0.456 ± 0.1.

As for “SAFB-like transcription modulator L52N, Q9NWH9”, the abundance fitness is -0.385 ± 0.23.

For the substance “SAFB-like transcription modulator L52P, Q9NWH9”, the abundance fitness is -0.467 ± 0.12.

Substance “SAFB-like transcription modulator L52Q, Q9NWH9” gave an abundance fitness of -0.927 ± 0.45.

Take “SAFB-like transcription modulator L52R, Q9NWH9”: the abundance fitness is -0.808 ± 0.057.

Consider “SAFB-like transcription modulator L52S, Q9NWH9”, for which the abundance fitness is -0.563 ± 0.087.

Take “SAFB-like transcription modulator L52T, Q9NWH9”: the abundance fitness is -0.642 ± 0.16.

Take “SAFB-like transcription modulator L52V, Q9NWH9”: the abundance fitness is -0.412 ± 0.077.

The substance “SAFB-like transcription modulator L52W, Q9NWH9” came in with an abundance fitness of -1.15 ± 0.14.

As for “SAFB-like transcription modulator L52Y, Q9NWH9”, the abundance fitness is -0.651 ± 0.17.

For “SAFB-like transcription modulator L68A, Q9NWH9”, the abundance fitness turned out to be 0.219 ± 0.15.

“SAFB-like transcription modulator L68C, Q9NWH9” gave an abundance fitness of -0.092 ± 0.097.

On to “SAFB-like transcription modulator L68F, Q9NWH9”, for which the abundance fitness was -0.164 ± 0.09.

On to “SAFB-like transcription modulator L68G, Q9NWH9”, for which the abundance fitness is -0.165 ± 0.086.

Regarding “SAFB-like transcription modulator L68H, Q9NWH9”, the abundance fitness worked out at 0.053 ± 0.29.

“SAFB-like transcription modulator L68I, Q9NWH9” yielded an abundance fitness of 0.295 ± 0.089.

As to “SAFB-like transcription modulator L68M, Q9NWH9”, the abundance fitness is -0.188 ± 0.061.

Take “SAFB-like transcription modulator L68P, Q9NWH9”: the abundance fitness came out at 0.022 ± 0.062.

The substance “SAFB-like transcription modulator L68Q, Q9NWH9” displayed an abundance fitness of -0.14 ± 0.075.

The substance “SAFB-like transcription modulator L68R, Q9NWH9” displayed an abundance fitness of -0.165 ± 0.067.

For “SAFB-like transcription modulator L68S, Q9NWH9”, the abundance fitness was -0.16 ± 0.063.

On to “SAFB-like transcription modulator L68T, Q9NWH9”, for which the abundance fitness is -0.135 ± 0.065.

On to “SAFB-like transcription modulator L68V, Q9NWH9”, for which the abundance fitness is -0.075 ± 0.063.

In the case of “SAFB-like transcription modulator L68W, Q9NWH9”, the abundance fitness is -0.181 ± 0.052.

With “SAFB-like transcription modulator L68Y, Q9NWH9”, the abundance fitness was -0.763 ± 0.31.

For “SAFB-like transcription modulator N38A, Q9NWH9”, the abundance fitness is -0.296 ± 0.063.

On to “SAFB-like transcription modulator N38D, Q9NWH9”, for which the abundance fitness is -0.222 ± 0.086.

In turn, “SAFB-like transcription modulator N38E, Q9NWH9” came in with an abundance fitness of -0.153 ± 0.034.

In the case of “SAFB-like transcription modulator N38F, Q9NWH9”, the abundance fitness is -0.24 ± 0.083.

“SAFB-like transcription modulator N38G, Q9NWH9”: the abundance fitness was -0.002 ± 0.047.

Regarding “SAFB-like transcription modulator N38H, Q9NWH9”, the abundance fitness was -0.492 ± 0.2.

“SAFB-like transcription modulator N38K, Q9NWH9” displayed an abundance fitness of -0.092 ± 0.047.

As for “SAFB-like transcription modulator N38L, Q9NWH9”, the abundance fitness is -0.247 ± 0.05.

“SAFB-like transcription modulator N38M, Q9NWH9” displayed an abundance fitness of -0.192 ± 0.057.

For the substance “SAFB-like transcription modulator N38P, Q9NWH9”, the abundance fitness was -1.06 ± 0.15.

In turn, “SAFB-like transcription modulator N38Q, Q9NWH9” came in with an abundance fitness of -0.04 ± 0.046.

The substance “SAFB-like transcription modulator N38R, Q9NWH9” gave an abundance fitness of -0.141 ± 0.044.

“SAFB-like transcription modulator N38S, Q9NWH9” gave an abundance fitness of -0.105 ± 0.048.

The substance “SAFB-like transcription modulator N38T, Q9NWH9” came in with an abundance fitness of -0.233 ± 0.073.

With “SAFB-like transcription modulator N38V, Q9NWH9”, the abundance fitness was -0.688 ± 0.052.

“SAFB-like transcription modulator N38W, Q9NWH9” yielded an abundance fitness of -0.368 ± 0.037.

As to “SAFB-like transcription modulator N38Y, Q9NWH9”, the abundance fitness is -0.455 ± 0.11.

On to “SAFB-like transcription modulator N65A, Q9NWH9”, for which the abundance fitness is -0.236 ± 0.065.

The substance “SAFB-like transcription modulator N65C, Q9NWH9” displayed an abundance fitness of -0.126 ± 0.074.

As for “SAFB-like transcription modulator N65D, Q9NWH9”, the abundance fitness was -0.186 ± 0.082.

With “SAFB-like transcription modulator N65E, Q9NWH9”, the abundance fitness is -0.165 ± 0.069.

For the substance “SAFB-like transcription modulator N65F, Q9NWH9”, the abundance fitness is -0.101 ± 0.065.

The substance “SAFB-like transcription modulator N65G, Q9NWH9” showed an abundance fitness of -0.365 ± 0.052.

“SAFB-like transcription modulator N65H, Q9NWH9” had an abundance fitness of -0.166 ± 0.084.

Substance “SAFB-like transcription modulator N65K, Q9NWH9” returned an abundance fitness of -0.103 ± 0.038.

For the substance “SAFB-like transcription modulator N65L, Q9NWH9”, the abundance fitness is -0.206 ± 0.035.

“SAFB-like transcription modulator N65M, Q9NWH9” yielded an abundance fitness of -0.135 ± 0.055.

“SAFB-like transcription modulator N65P, Q9NWH9” yielded an abundance fitness of -0.575 ± 0.036.

Take “SAFB-like transcription modulator N65Q, Q9NWH9”: the abundance fitness is -0.176 ± 0.076.

Turning to “SAFB-like transcription modulator N65R, Q9NWH9”, the abundance fitness is -0.094 ± 0.045.

Substance “SAFB-like transcription modulator N65S, Q9NWH9” yielded an abundance fitness of -0.162 ± 0.04.

In turn, “SAFB-like transcription modulator N65T, Q9NWH9” showed an abundance fitness of -0.281 ± 0.059.

The substance “SAFB-like transcription modulator N65W, Q9NWH9” yielded an abundance fitness of -0.339 ± 0.071.

Substance “SAFB-like transcription modulator N65Y, Q9NWH9” registered an abundance fitness of -0.191 ± 0.065.

In the case of “SAFB-like transcription modulator P63A, Q9NWH9”, the abundance fitness is -0.23 ± 0.053.

“SAFB-like transcription modulator P63C, Q9NWH9” gave an abundance fitness of -0.134 ± 0.04.

“SAFB-like transcription modulator P63D, Q9NWH9” yielded an abundance fitness of -0.553 ± 0.064.

For the substance “SAFB-like transcription modulator P63E, Q9NWH9”, the abundance fitness is -0.337 ± 0.058.

On to “SAFB-like transcription modulator P63F, Q9NWH9”, for which the abundance fitness was -0.257 ± 0.045.

In turn, “SAFB-like transcription modulator P63H, Q9NWH9” had an abundance fitness of -0.397 ± 0.049.

As to “SAFB-like transcription modulator P63I, Q9NWH9”, the abundance fitness was -0.165 ± 0.057.

With “SAFB-like transcription modulator P63K, Q9NWH9”, the abundance fitness was -0.354 ± 0.074.

On to “SAFB-like transcription modulator P63L, Q9NWH9”, for which the abundance fitness was -0.213 ± 0.038.

Take “SAFB-like transcription modulator P63M, Q9NWH9”: the abundance fitness is -0.264 ± 0.068.

“SAFB-like transcription modulator P63N, Q9NWH9” registered an abundance fitness of -0.422 ± 0.045.

The substance “SAFB-like transcription modulator P63Q, Q9NWH9” showed an abundance fitness of -0.48 ± 0.082.

Regarding “SAFB-like transcription modulator P63R, Q9NWH9”, the abundance fitness is -0.478 ± 0.053.

“SAFB-like transcription modulator P63S, Q9NWH9” showed an abundance fitness of -0.17 ± 0.049.

Consider “SAFB-like transcription modulator P63T, Q9NWH9”, for which the abundance fitness is -0.053 ± 0.065.

Take “SAFB-like transcription modulator P63V, Q9NWH9”: the abundance fitness is -0.09 ± 0.034.

Take “SAFB-like transcription modulator P63W, Q9NWH9”: the abundance fitness was -0.245 ± 0.059.

In the case of “SAFB-like transcription modulator P63Y, Q9NWH9”, the abundance fitness was -0.214 ± 0.051.
